From paper PMC7797039, “G-Quadruplex loops regulate PARP-1 enzymatic activation”

Experiments:
PARP-1 [1] = target: T1, PARP-1 (Homo sapiens, UniProt P09874 1-1014); assay: fluorescence anisotropy; 140 mM KCl, 8 mM MgCl2; 25 mM HEPES pH 8.0, 140 mM KCl, 8 mM MgCl2, 50 ug/ml BSA, 0.02 mM TCEP, 4% glycerol, 11.4 mM bME, 5 nM labeled DNA, 30 min room temperature, read at 25 C; settings: protein: recombinant, tags: His-tag (pET28a)
PARP-1 [2] = target: T1, PARP-1; assay: fluorescence anisotropy; 140 mM KCl, 8 mM MgCl2; tighter than c-KIT, Kd in figure only; 25 mM HEPES pH 8.0, 140 mM KCl, 8 mM MgCl2, 50 ug/ml BSA, 0.02 mM TCEP, 4% glycerol, 11.4 mM bME, 5 nM labeled DNA, 30 min room temperature, read at 25 C; settings: protein: recombinant; tags: His-tag (pET28a); parallel G4
PARP-1 [3] = target: T1, PARP-1; assay: fluorescence anisotropy; 140 mM KCl, 8 mM MgCl2; ~14-fold tighter than c-KIT, similar to 18-bp dsDNA; 25 mM HEPES pH 8.0, 140 mM KCl, 8 mM MgCl2, 50 ug/ml BSA, 0.02 mM TCEP, 4% glycerol, 11.4 mM bME, 5 nM labeled DNA, 30 min room temperature, read at 25 C; settings: protein: recombinant; tags: His-tag (pET28a); parallel G4

T1 sequence (P09874 whole entry): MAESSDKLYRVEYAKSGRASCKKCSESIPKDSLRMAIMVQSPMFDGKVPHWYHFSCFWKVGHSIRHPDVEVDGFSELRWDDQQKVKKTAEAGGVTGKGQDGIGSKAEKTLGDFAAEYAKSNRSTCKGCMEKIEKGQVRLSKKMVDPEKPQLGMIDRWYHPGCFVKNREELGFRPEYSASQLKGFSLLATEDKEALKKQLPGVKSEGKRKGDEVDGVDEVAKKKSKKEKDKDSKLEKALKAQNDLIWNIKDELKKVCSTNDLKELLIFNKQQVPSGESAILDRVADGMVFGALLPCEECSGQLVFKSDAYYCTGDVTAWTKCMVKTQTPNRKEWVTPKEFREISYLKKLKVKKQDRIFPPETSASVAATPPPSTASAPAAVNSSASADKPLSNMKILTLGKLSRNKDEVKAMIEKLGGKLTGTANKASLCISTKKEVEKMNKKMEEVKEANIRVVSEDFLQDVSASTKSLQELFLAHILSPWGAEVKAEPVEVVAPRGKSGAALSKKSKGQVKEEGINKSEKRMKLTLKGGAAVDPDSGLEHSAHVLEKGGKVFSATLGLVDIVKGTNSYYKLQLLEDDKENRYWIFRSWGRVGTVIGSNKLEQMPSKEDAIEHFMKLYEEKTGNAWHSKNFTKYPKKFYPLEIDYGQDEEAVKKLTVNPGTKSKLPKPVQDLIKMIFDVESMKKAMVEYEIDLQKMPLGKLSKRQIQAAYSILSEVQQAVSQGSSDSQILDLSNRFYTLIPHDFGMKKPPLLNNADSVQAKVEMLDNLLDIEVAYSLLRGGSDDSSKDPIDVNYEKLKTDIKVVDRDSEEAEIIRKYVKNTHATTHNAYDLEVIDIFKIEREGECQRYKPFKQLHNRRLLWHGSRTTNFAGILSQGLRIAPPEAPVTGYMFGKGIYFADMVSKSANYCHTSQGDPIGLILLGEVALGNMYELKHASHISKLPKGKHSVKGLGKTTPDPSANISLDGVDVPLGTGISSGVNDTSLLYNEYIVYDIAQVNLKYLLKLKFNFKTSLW

CGGGCGGGCGCGAGGGAGGGGAGG (structured_DNA) [c-KIT 5']
Kd (PARP-1 [1]; parallel G4): 230 ± 9 nM

CCCGGGCGGGCGCGAGGGAGGGGAGG (structured_DNA) [c-KIT G4DNA]
Kd (PARP-1 [1]; parallel G4, stem-loop also possible): 430 ± 60 nM

TGGGTGGGTAGGGTGGGT (structured_DNA) [c-MYC G4DNA (Pu18 T14T23)]
Kd (PARP-1 [1]; parallel G4): 400 ± 50 nM

CCCGGGCGGGCGGGAGGGGAGG (structured_DNA) [c-KIT L2]
binding result (PARP-1 [2]): binds

B1: 18-bp dsDNA (dsDNA)
DNA 1: GGGTTGCGGCCGCTTGGG
DNA 2: CCCAAGCGGCCGCAACCC
Kd (PARP-1 [1]; blunt): 30 ± 10 nM

GGGCGGGCGGGAGGGGAGG (structured_DNA) [c-KIT 5':L2]
Kd (PARP-1 [3]): ~30 nM
